The values below come from patent US20260042827A1, “ANTI-WT1 ANTIGEN-BINDING PROTEINS AND USES THEREOF” (UNIVERSITY HEALTH NETWORK, priority 2022, published 2026).

Sequences and labels used below:
T1: HLA-DP4 (human), P20036
T1 chain 1: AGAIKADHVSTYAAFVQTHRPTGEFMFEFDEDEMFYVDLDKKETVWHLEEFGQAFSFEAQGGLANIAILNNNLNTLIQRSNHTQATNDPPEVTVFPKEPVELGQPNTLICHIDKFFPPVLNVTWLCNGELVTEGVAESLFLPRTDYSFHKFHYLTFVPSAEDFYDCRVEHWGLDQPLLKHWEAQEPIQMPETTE
T1 chain 2: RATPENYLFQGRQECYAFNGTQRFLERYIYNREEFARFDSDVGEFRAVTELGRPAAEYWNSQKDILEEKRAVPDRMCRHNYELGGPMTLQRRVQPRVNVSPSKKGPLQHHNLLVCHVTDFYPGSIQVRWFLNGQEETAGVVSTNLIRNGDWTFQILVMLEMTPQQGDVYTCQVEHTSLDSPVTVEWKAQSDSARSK

B1: 332A (peptide)
chain: PGCNARYFKLSHLQMHSRKHT
B2: 333A (peptide)
chain: PGCNKAYFKLSHLQMHSRKHT
B3: 331A (peptide)
chain: PGCAKRYFKLSHLQMHSRKHT
B4: 329A (peptide)
chain: PACNKRYFKLSHLQMHSRKHT
B5: 341A (peptide)
chain: PGCNKRYFKLSHLAMHSRKHT
B6: 345A (peptide)
chain: PGCNKRYFKLSHLQMHSAKHT

The target of the experiment is T1, HLA-DP4 (human), P20036. Nature of the experiment: competition. The following applies: modification not given.
For B1, the IC50 amounted to 4.74 mM.

B2 showed an IC50 of 0.3 mM.

For the molecule B3, the IC50 worked out at 7.46 mM.

For the molecule B4, the concentration for half-maximal inhibition (IC50) came out at 5.44 mM.

Molecule B5 came in with a half-maximal inhibitory concentration (IC50) of 8.51 mM.

For B6, the IC50 amounted to 9.37 mM.

Usually IC50 stands for the concentration that inhibits the measured activity by half. Read a high IC50 as weaker potency in that assay.
